Measured values as given in US20250361282A1.

Key:
[1] = target: rat NPR-A (rat) (UniProt P18910); assay: cell-based or functional assay
[2] = target: rat NPR-B (rat) (UniProt P16067); assay: cell-based or functional assay
rat NPR-B (rat), sequence (P16067 17-1047): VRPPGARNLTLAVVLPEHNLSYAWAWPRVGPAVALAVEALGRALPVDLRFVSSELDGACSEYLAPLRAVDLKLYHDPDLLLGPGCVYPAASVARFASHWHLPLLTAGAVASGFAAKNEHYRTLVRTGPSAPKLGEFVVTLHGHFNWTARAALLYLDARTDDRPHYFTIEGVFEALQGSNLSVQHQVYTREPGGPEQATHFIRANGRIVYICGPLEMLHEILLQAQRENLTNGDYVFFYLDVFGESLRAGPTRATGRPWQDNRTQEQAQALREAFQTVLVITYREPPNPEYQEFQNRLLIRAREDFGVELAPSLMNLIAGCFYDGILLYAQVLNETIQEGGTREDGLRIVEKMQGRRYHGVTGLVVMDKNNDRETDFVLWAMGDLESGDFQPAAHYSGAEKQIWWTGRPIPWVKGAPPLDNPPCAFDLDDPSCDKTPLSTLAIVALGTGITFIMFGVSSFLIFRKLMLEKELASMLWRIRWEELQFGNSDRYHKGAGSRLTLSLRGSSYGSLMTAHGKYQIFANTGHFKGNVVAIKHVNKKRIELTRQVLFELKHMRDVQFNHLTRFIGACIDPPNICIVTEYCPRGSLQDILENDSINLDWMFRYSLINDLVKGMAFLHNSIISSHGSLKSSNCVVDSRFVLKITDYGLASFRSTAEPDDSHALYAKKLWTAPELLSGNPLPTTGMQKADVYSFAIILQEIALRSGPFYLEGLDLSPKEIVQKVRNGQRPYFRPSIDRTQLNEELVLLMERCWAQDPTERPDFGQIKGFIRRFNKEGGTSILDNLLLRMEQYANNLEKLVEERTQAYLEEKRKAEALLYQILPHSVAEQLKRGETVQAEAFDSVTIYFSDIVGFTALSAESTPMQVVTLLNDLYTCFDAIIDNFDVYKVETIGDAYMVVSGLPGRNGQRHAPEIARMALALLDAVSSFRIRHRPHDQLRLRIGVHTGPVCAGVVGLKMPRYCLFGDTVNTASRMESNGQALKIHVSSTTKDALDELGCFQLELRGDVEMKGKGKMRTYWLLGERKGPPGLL

rat NPR-A (rat), sequence (P18910 29-1057): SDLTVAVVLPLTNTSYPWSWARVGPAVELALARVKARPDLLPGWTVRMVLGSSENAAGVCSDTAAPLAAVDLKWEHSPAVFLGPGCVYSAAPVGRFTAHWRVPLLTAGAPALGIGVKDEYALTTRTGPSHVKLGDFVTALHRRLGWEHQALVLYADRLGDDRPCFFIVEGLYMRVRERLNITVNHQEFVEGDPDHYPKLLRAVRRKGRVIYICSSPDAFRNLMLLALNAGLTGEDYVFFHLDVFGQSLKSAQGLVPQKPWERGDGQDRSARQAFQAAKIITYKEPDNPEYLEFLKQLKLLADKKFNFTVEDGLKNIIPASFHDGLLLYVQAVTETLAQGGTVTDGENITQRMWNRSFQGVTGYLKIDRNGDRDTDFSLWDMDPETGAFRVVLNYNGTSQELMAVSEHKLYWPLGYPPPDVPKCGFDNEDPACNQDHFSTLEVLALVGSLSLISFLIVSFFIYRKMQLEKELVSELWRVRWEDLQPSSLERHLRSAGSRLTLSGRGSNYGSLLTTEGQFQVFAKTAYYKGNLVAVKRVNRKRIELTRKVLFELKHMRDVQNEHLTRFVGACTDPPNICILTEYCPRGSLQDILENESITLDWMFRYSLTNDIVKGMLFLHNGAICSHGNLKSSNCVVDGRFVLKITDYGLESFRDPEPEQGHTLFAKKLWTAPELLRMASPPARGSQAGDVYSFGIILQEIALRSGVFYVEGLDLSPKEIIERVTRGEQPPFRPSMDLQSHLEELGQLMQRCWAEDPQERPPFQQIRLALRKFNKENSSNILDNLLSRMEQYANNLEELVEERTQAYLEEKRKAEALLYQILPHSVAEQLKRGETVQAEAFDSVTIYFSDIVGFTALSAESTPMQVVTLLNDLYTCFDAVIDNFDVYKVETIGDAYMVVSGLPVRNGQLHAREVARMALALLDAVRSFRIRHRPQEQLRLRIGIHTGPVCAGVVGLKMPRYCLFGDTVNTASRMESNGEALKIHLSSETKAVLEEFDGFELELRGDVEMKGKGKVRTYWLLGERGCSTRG

Substance | EC50, fluorescence signal of rat NPR-A / CNGA2 (cGMP biosensor) / GCaMP6 CHO reporter cells [1] | EC50, luminescence signal of rat NPR-B reporter cells [2]
BNP (Bachem, H-5968) (from UniProt P13205 90-121) (peptide) | 2900 pM | –
CNP (Bachem, H-1296) (from UniProt P23582 105-126) (peptide) | – | 24 pM
ANP (Bachem, H-2100) (from UniProt P01161 123-150) (peptide) | 220 pM | –
